Measured values taken from the supplement of paper PMC11811203.

B1: THAP1; numbered along this chain (parent)
chain: MVQSCSAYGCKNRYDKDKPVSFHKFPLTRPSLCKEWEAAVRRKNFKPTKYSSICSEHFTPDCFKRECNNKLLKENAVPTIFLCTEPHDKKEDLLEPQEQLPPPPLPPPVSQVDAAIGLLMPPLQTPVNLSVFCDHNYTVEDTMHQRKRIHQLEQQVEKLRKKLKTAQQRCRRQERQLEKLKEVVHFQKEKDDVSERGYVILPNDYFEIVEVPA

Variants of: B1
Assay: THAP1 transcriptional activity (GFP+/GFP- enrichment relative to wild-type constructs) (ratio to WT); higher = more THAP1 activity (PSMB5 reporter activation)
Conditions: with PSMB5 promoter-GFP reporter
Method in brief: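 A lentiviral site-saturation library covering residues 2–213 of human THAP1, with each position changed to all 20 amino acids, was transduced in duplicate at MOI ~0.3 into THAP1-knockout HEK-293T cells with mClover3 knocked in at endogenous PSMB5. Five days later, BFP+ cells were sorted into GFP-dim and GFP-bright bins and variants were counted by Illumina sequencing of genomic DNA amplicons. Activity is the bright/dim read fold change averaged over replicates and divided by the mean of wild-type synonymous constructs.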

Variant	THAP1 transcriptional activity
MVQSCSAYGCKNRYDKDKPVSFHKFPLTRPSLCKEWEAAVRRKNFKPTKYSSICSEHFTPDCFKRECNNKLLKENAVPTIFLCTEPHDKKEDLLEPQEQLPPPPLPPPVSQVDAAIGLLMPPLQTPVNLSVFCDHNYTVEDTMHQRKRIHQLEQQVEKLAKKLKTAQQRCRRQERQLEKLKEVVHFQKEKDDVSERGYVILPNDYFEIVEVPA [R160A]	0.391
MVQSCSAYGCKNRYDKDKPVSFHKFPLTRPSLCKEWEAAVRRKNFKPTKYSSICSEHFTPDCFKRECNNKLLKENAVPTIFLCTEPHDKKEDLLEPQEQLPPPPLPPPVSQVDAAIGLLMPPLQTPVNLSVFCDHNYTVEDTMHQRKRIHQLEQQVEKLIKKLKTAQQRCRRQERQLEKLKEVVHFQKEKDDVSERGYVILPNDYFEIVEVPA [R160I]	0.228
MVQSCSAYGCKNRYDKDKPVSFHKFPLTRPSLCKEWEAAVRRKNFKPTKYSSICSEHFTPDCFKRECNNKLLKENAVPTIFLCTEPHDKKEDLLEPQEQLPPPPLPPPVSQVDAAIGLLMPPLQTPVNLSVFCDHNYTVEDTMHQRKRIHQLEQQVEKLLKKLKTAQQRCRRQERQLEKLKEVVHFQKEKDDVSERGYVILPNDYFEIVEVPA [R160L]	0.205
MVQSCSAYGCKNRYDKDKPVSFHKFPLTRPSLCKEWEAAVRRKNFKPTKYSSICSEHFTPDCFKRECNNKLLKENAVPTIFLCTEPHDKKEDLLEPQEQLPPPPLPPPVSQVDAAIGLLMPPLQTPVNLSVFCDHNYTVEDTMHQRKRIHQLEQQVEKLGKKLKTAQQRCRRQERQLEKLKEVVHFQKEKDDVSERGYVILPNDYFEIVEVPA [R160G]	0.224
MVQSCSAYGCKNRYDKDKPVSFHKFPLTRPSLCKEWEAAVRRKNFKPTKYSSICSEHFTPDCFKRECNNKLLKENAVPTIFLCTEPHDKKEDLLEPQEQLPPPPLPPPVSQVDAAIGLLMPPLQTPVNLSVFCDHNYTVEDTMHQRKRIHQLEQQVEKLDKKLKTAQQRCRRQERQLEKLKEVVHFQKEKDDVSERGYVILPNDYFEIVEVPA [R160D]	0.216
MVQSCSAYGCKNRYDKDKPVSFHKFPLTRPSLCKEWEAAVRRKNFKPTKYSSICSEHFTPDCFKRECNNKLLKENAVPTIFLCTEPHDKKEDLLEPQEQLPPPPLPPPVSQVDAAIGLLMPPLQTPVNLSVFCDHNYTVEDTMHQRKRIHQLEQQVEKLKKKLKTAQQRCRRQERQLEKLKEVVHFQKEKDDVSERGYVILPNDYFEIVEVPA [R160K]	0.689
MVQSCSAYGCKNRYDKDKPVSFHKFPLTRPSLCKEWEAAVRRKNFKPTKYSSICSEHFTPDCFKRECNNKLLKENAVPTIFLCTEPHDKKEDLLEPQEQLPPPPLPPPVSQVDAAIGLLMPPLQTPVNLSVFCDHNYTVEDTMHQRKRIHQLEQQVEKLMKKLKTAQQRCRRQERQLEKLKEVVHFQKEKDDVSERGYVILPNDYFEIVEVPA [R160M]	0.278
MVQSCSAYGCKNRYDKDKPVSFHKFPLTRPSLCKEWEAAVRRKNFKPTKYSSICSEHFTPDCFKRECNNKLLKENAVPTIFLCTEPHDKKEDLLEPQEQLPPPPLPPPVSQVDAAIGLLMPPLQTPVNLSVFCDHNYTVEDTMHQRKRIHQLEQQVEKLFKKLKTAQQRCRRQERQLEKLKEVVHFQKEKDDVSERGYVILPNDYFEIVEVPA [R160F]	0.252
MVQSCSAYGCKNRYDKDKPVSFHKFPLTRPSLCKEWEAAVRRKNFKPTKYSSICSEHFTPDCFKRECNNKLLKENAVPTIFLCTEPHDKKEDLLEPQEQLPPPPLPPPVSQVDAAIGLLMPPLQTPVNLSVFCDHNYTVEDTMHQRKRIHQLEQQVEKLHKKLKTAQQRCRRQERQLEKLKEVVHFQKEKDDVSERGYVILPNDYFEIVEVPA [R160H]	0.433
MVQSCSAYGCKNRYDKDKPVSFHKFPLTRPSLCKEWEAAVRRKNFKPTKYSSICSEHFTPDCFKRECNNKLLKENAVPTIFLCTEPHDKKEDLLEPQEQLPPPPLPPPVSQVDAAIGLLMPPLQTPVNLSVFCDHNYTVEDTMHQRKRIHQLEQQVEKLCKKLKTAQQRCRRQERQLEKLKEVVHFQKEKDDVSERGYVILPNDYFEIVEVPA [R160C]	0.269
MVQSCSAYGCKNRYDKDKPVSFHKFPLTRPSLCKEWEAAVRRKNFKPTKYSSICSEHFTPDCFKRECNNKLLKENAVPTIFLCTEPHDKKEDLLEPQEQLPPPPLPPPVSQVDAAIGLLMPPLQTPVNLSVFCDHNYTVEDTMHQRKRIHQLEQQVEKLPKKLKTAQQRCRRQERQLEKLKEVVHFQKEKDDVSERGYVILPNDYFEIVEVPA [R160P]	0.171
MVQSCSAYGCKNRYDKDKPVSFHKFPLTRPSLCKEWEAAVRRKNFKPTKYSSICSEHFTPDCFKRECNNKLLKENAVPTIFLCTEPHDKKEDLLEPQEQLPPPPLPPPVSQVDAAIGLLMPPLQTPVNLSVFCDHNYTVEDTMHQRKRIHQLEQQVEYLRKKLKTAQQRCRRQERQLEKLKEVVHFQKEKDDVSERGYVILPNDYFEIVEVPA [K158Y]	0.666
MVQSCSAYGCKNRYDKDKPVSFHKFPLTRPSLCKEWEAAVRRKNFKPTKYSSICSEHFTPDCFKRECNNKLLKENAVPTIFLCTEPHDKKEDLLEPQEQLPPPPLPPPVSQVDAAIGLLMPPLQTPVNLSVFCDHNYTVEDTMHQRKRIHQLEQQVEKVRKKLKTAQQRCRRQERQLEKLKEVVHFQKEKDDVSERGYVILPNDYFEIVEVPA [L159V]	0.327
MVQSCSAYGCKNRYDKDKPVSFHKFPLTRPSLCKEWEAAVRRKNFKPTKYSSICSEHFTPDCFKRECNNKLLKENAVPTIFLCTEPHDKKEDLLEPQEQLPPPPLPPPVSQVDAAIGLLMPPLQTPVNLSVFCDHNYTVEDTMHQRKRIHQLEQQVEKGRKKLKTAQQRCRRQERQLEKLKEVVHFQKEKDDVSERGYVILPNDYFEIVEVPA [L159G]	0.147
MVQSCSAYGCKNRYDKDKPVSFHKFPLTRPSLCKEWEAAVRRKNFKPTKYSSICSEHFTPDCFKRECNNKLLKENAVPTIFLCTEPHDKKEDLLEPQEQLPPPPLPPPVSQVDAAIGLLMPPLQTPVNLSVFCDHNYTVEDTMHQRKRIHQLEQQVEKTRKKLKTAQQRCRRQERQLEKLKEVVHFQKEKDDVSERGYVILPNDYFEIVEVPA [L159T]	0.209
MVQSCSAYGCKNRYDKDKPVSFHKFPLTRPSLCKEWEAAVRRKNFKPTKYSSICSEHFTPDCFKRECNNKLLKENAVPTIFLCTEPHDKKEDLLEPQEQLPPPPLPPPVSQVDAAIGLLMPPLQTPVNLSVFCDHNYTVEDTMHQRKRIHQLEQQVEKARKKLKTAQQRCRRQERQLEKLKEVVHFQKEKDDVSERGYVILPNDYFEIVEVPA [L159A]	0.245
MVQSCSAYGCKNRYDKDKPVSFHKFPLTRPSLCKEWEAAVRRKNFKPTKYSSICSEHFTPDCFKRECNNKLLKENAVPTIFLCTEPHDKKEDLLEPQEQLPPPPLPPPVSQVDAAIGLLMPPLQTPVNLSVFCDHNYTVEDTMHQRKRIHQLEQQVEKPRKKLKTAQQRCRRQERQLEKLKEVVHFQKEKDDVSERGYVILPNDYFEIVEVPA [L159P]	0.158
MVQSCSAYGCKNRYDKDKPVSFHKFPLTRPSLCKEWEAAVRRKNFKPTKYSSICSEHFTPDCFKRECNNKLLKENAVPTIFLCTEPHDKKEDLLEPQEQLPPPPLPPPVSQVDAAIGLLMPPLQTPVNLSVFCDHNYTVEDTMHQRKRIHQLEQQVEKNRKKLKTAQQRCRRQERQLEKLKEVVHFQKEKDDVSERGYVILPNDYFEIVEVPA [L159N]	0.294
MVQSCSAYGCKNRYDKDKPVSFHKFPLTRPSLCKEWEAAVRRKNFKPTKYSSICSEHFTPDCFKRECNNKLLKENAVPTIFLCTEPHDKKEDLLEPQEQLPPPPLPPPVSQVDAAIGLLMPPLQTPVNLSVFCDHNYTVEDTMHQRKRIHQLEQQVEKERKKLKTAQQRCRRQERQLEKLKEVVHFQKEKDDVSERGYVILPNDYFEIVEVPA [L159E]	0.147
MVQSCSAYGCKNRYDKDKPVSFHKFPLTRPSLCKEWEAAVRRKNFKPTKYSSICSEHFTPDCFKRECNNKLLKENAVPTIFLCTEPHDKKEDLLEPQEQLPPPPLPPPVSQVDAAIGLLMPPLQTPVNLSVFCDHNYTVEDTMHQRKRIHQLEQQVEKYRKKLKTAQQRCRRQERQLEKLKEVVHFQKEKDDVSERGYVILPNDYFEIVEVPA [L159Y]	0.707
MVQSCSAYGCKNRYDKDKPVSFHKFPLTRPSLCKEWEAAVRRKNFKPTKYSSICSEHFTPDCFKRECNNKLLKENAVPTIFLCTEPHDKKEDLLEPQEQLPPPPLPPPVSQVDAAIGLLMPPLQTPVNLSVFCDHNYTVEDTMHQRKRIHQLEQQVEKDRKKLKTAQQRCRRQERQLEKLKEVVHFQKEKDDVSERGYVILPNDYFEIVEVPA [L159D]	0.213
MVQSCSAYGCKNRYDKDKPVSFHKFPLTRPSLCKEWEAAVRRKNFKPTKYSSICSEHFTPDCFKRECNNKLLKENAVPTIFLCTEPHDKKEDLLEPQEQLPPPPLPPPVSQVDAAIGLLMPPLQTPVNLSVFCDHNYTVEDTMHQRKRIHQLEQQVEKQRKKLKTAQQRCRRQERQLEKLKEVVHFQKEKDDVSERGYVILPNDYFEIVEVPA [L159Q]	0.261
MVQSCSAYGCKNRYDKDKPVSFHKFPLTRPSLCKEWEAAVRRKNFKPTKYSSICSEHFTPDCFKRECNNKLLKENAVPTIFLCTEPHDKKEDLLEPQEQLPPPPLPPPVSQVDAAIGLLMPPLQTPVNLSVFCDHNYTVEDTMHQRKRIHQLEQQVEKWRKKLKTAQQRCRRQERQLEKLKEVVHFQKEKDDVSERGYVILPNDYFEIVEVPA [L159W]	0.164
MVQSCSAYGCKNRYDKDKPVSFHKFPLTRPSLCKEWEAAVRRKNFKPTKYSSICSEHFTPDCFKRECNNKLLKENAVPTIFLCTEPHDKKEDLLEPQEQLPPPPLPPPVSQVDAAIGLLMPPLQTPVNLSVFCDHNYTVEDTMHQRKRIHQLEQQVEKCRKKLKTAQQRCRRQERQLEKLKEVVHFQKEKDDVSERGYVILPNDYFEIVEVPA [L159C]	0.151
MVQSCSAYGCKNRYDKDKPVSFHKFPLTRPSLCKEWEAAVRRKNFKPTKYSSICSEHFTPDCFKRECNNKLLKENAVPTIFLCTEPHDKKEDLLEPQEQLPPPPLPPPVSQVDAAIGLLMPPLQTPVNLSVFCDHNYTVEDTMHQRKRIHQLEQQVEKHRKKLKTAQQRCRRQERQLEKLKEVVHFQKEKDDVSERGYVILPNDYFEIVEVPA [L159H]	0.228
MVQSCSAYGCKNRYDKDKPVSFHKFPLTRPSLCKEWEAAVRRKNFKPTKYSSICSEHFTPDCFKRECNNKLLKENAVPTIFLCTEPHDKKEDLLEPQEQLPPPPLPPPVSQVDAAIGLLMPPLQTPVNLSVFCDHNYTVEDTMHQRKRIHQLEQQVEKMRKKLKTAQQRCRRQERQLEKLKEVVHFQKEKDDVSERGYVILPNDYFEIVEVPA [L159M]	0.541
MVQSCSAYGCKNRYDKDKPVSFHKFPLTRPSLCKEWEAAVRRKNFKPTKYSSICSEHFTPDCFKRECNNKLLKENAVPTIFLCTEPHDKKEDLLEPQEQLPPPPLPPPVSQVDAAIGLLMPPLQTPVNLSVFCDHNYTVEDTMHQRKRIHQLEQQVEKFRKKLKTAQQRCRRQERQLEKLKEVVHFQKEKDDVSERGYVILPNDYFEIVEVPA [L159F]	0.337
MVQSCSAYGCKNRYDKDKPVSFHKFPLTRPSLCKEWEAAVRRKNFKPTKYSSICSEHFTPDCFKRECNNKLLKENAVPTIFLCTEPHDKKEDLLEPQEQLPPPPLPPPVSQVDAAIGLLMPPLQTPVNLSVFCDHNYTVEDTMHQRKRIHQLEQQVEKRRKKLKTAQQRCRRQERQLEKLKEVVHFQKEKDDVSERGYVILPNDYFEIVEVPA [L159R]	0.193
